According to US20240392003A1 (NUMAB THERAPEUTICS, published 2024):
Read-outs that look alike come from different tables or passages of the source.

How the values were obtained:
[1] = target: T1, human ROR1 expressed on cells (human, UniProt Q01973 30-937); assay: flow cytometry, JIMT-1 cells (ROR1-positive)
T1 construct: whole, on cells; One molecule for cell-surface ROR1 on all cell lines; the cell line is named under assay; also called hROR1; plasma membrane human ROR1

[2] = target: T1, human ROR1 expressed on cells; assay: cell-based or functional assay
[3] = target: T2, recombinant human CD3 epsilon extra-cellular domain protein (His-Tag, SinoBiological) (human, UniProt P07766 23-126); assay: SPR; hCD3ε immobilized, two-state fit
T2 construct: extracellular domain; Bought; also called hCD3ε; human CD3ε; not shown: His tag

[4] = target: T3, human ROR1 (Peprotech 160-054) (human, UniProt Q01973 30-406); assay: SPR; MATCH4 captured, hROR1 analyte (Affinity)
T3 construct: Bought, used as analyte; also called hROR1; recombinant human ROR1 protein
Description: Binding affinity without avidity was determined by using a proprietary anti-framework rabbit IgG (rlgG21-57-20-B11) immobilized to a carboxymethylated dextran surface (CM5 sensorchip; Biacore, Cytiva) to capture the MATCH4 molecules on the surface. A titration series of human ROR1 (Peprotech 160-054) molecule was injected as analyte. After each capture-analyte injection cycle, every flow channel on the sensor chip was regenerated (3 M MgCl₂), and a MATCH4 molecule was captured again followed by a different concentration of human ROR1. The binding kinetics to human ROR1 were measured using a multi-cycle kinetic assay, with ten analyte concentrations ranging from 0.088 to 90 nM, 1:2 diluted in running buffer (HEPES buffered saline, 0.05% Tween-20, pH 7.5; Bioconcept).
For both assays, the apparent dissociation (kd) and association (kₐ) rate constants and the apparent dissociation equilibrium constant (KD) were calculated with the Biacore analysis software (Biacore Evaluation software Version 3.2, Cytiva) using a one-to-one Langmuir binding model and quality of the fits was monitored based on Chi2 and U-value, which are measures for the quality of the curve fitting. The binding level was calculated as the maximum stability binding achieved normalized to the theoretical Rmax.

[5] = target: T2, recombinant human CD3 epsilon …; assay: SPR; hCD3ε immobilized, two-state fit (kd1)
Description: (§1) Binding kinetics (including affinity) of the four MATCH4 molecules to recombinant human CD3 epsilon extra-cellular domain protein (hCD3ε; His-Tag, SinoBiological) were determined by SPR analysis on a T200 device (Biacore, Cytiva). Recombinant hCD3ε molecules were covalently immobilized to a carboxymethylated dextran surface (CM5 sensorchip; Biacore, Cytiva) and a titration series of each MATCH4 molecule was injected as analyte. After each analyte injection-cycle, every flow channel on the sensor chip was regenerated (Glycine, pH 2.0 and 3 M MgCl₂), and a new concentration of MATCH4 molecule was injected. […] The apparent dissociation (kd1) and association (kₐ₁) rate constants, the second reaction constants (kₐ₂ and kd2) and the apparent dissociation equilibrium constant (KD) were calculated with the Biacore analysis software (Biacore Evaluation software Version 3.2, Cytiva) using a two-state binding model, and the quality of the fits was monitored based on relative Chi2. The binding level was calculated as the maximum stability binding achieved normalized to the theoretical Rmax.

[6] = target: T1, human ROR1 expressed on cells; assay: flow cytometry, MDA-MB-231 cells, 1 mg/ml hSA
[7] = target: T1, human ROR1 expressed on cells; assay: cell-based or functional assay; remark: listed apart in the source
[8] = target: T1, human ROR1 expressed on cells; assay: flow cytometry, MDA-MB-231 cells, 1 mg/ml hSA; remark: listed apart in the source
Description: After incubation at 4° C. for 1 h in presence of 1 mg/ml of human serum albumin (hSA), plates were washed and incubated with specific detection antibodies.
The binding of MATCH4 molecules to plasma membrane-based human ROR1 was assessed by flow cytometry. The calculated EC₅₀, rel.

[9] = target: T4, recombinant human ROR1 protein (Fc-Tag, Acro Biosystems RO1-H5250) (human, UniProt Q01973 30-406); assay: SPR; hROR1-Fc immobilized (Avidity)
T4 construct: Bought; also called hROR1; recombinant human ROR1 ECD; not shown: Fc tag

[10] = target: T2, recombinant human CD3 epsilon …; assay: SPR; hCD3ε immobilized, two-state fit (Ka1)
Description: as §1

[11] = target: T1, human ROR1 expressed on cells; assay: cell-based or functional assay; remark: listed apart in the source
[12] = target: T1, human ROR1 expressed on cells; assay: flow cytometry, JIMT-1 cells (ROR1-positive); remark: listed apart in the source

Avg. % max. CD8 T cell act. (JIMT-1) [2] | Avg. % max. CD8 T cell act. (MDA-MB-231) [2] | Avg. % max. CD8 T cell act. (SKOV3) [2] | Avg. EC50 (nM) CD8 T cell act. (JIMT-1) [2] | Avg. EC50 (nM) CD8 T cell act. (MDA-MB-231) [2] | Avg. EC50 (nM) CD8 T cell act. (SKOV3) [2] | Ka2 [3] | Kd [3] | Kd2 [3] | Kd [4] | koff [4] | kon [4] | koff [5] | Avg. % max. CD4 T cell act. (JIMT-1) [7] | Avg. % max. CD4 T cell act. (MDA-MB-231) [7] | Avg. % max. CD4 T cell act. (SKOV3) [7] | Avg. EC50 (nM) CD4 T cell act. (JIMT-1) [7] | Avg. EC50 (nM) CD4 T cell act. (MDA-MB-231) [7] | Avg. EC50 (nM) CD4 T cell act. (SKOV3) [7] | EC50 [8] | Binder | also measured
23.8% | 68.5% | 66.7% | 0.08 nM | 0.012 nM | 0.032 nM | 0.0063 s⁻¹ | 5.9 nM | 0.0042 s⁻¹ | 1.2 nM | 0.00011 s⁻¹ | 94000 M⁻¹ s⁻¹ | 0.0065 s⁻¹ | 36.7% | 79% | 80.3% | 0.09 nM | 0.006 nM | 0.02 nM | 1.55 nM | PRO2589 (bispecific antibody, heterodimeric MATCH4, bivalent for ROR1, monovalent for CD3 and hSA; also called MATCH4 with 55-38-D07-sc02 / 19-04-A10-sc06 / 28-21-D09-sc04 / 55-38-D07-sc02) chain 1: DVQMTQSPSSLSASVGDRVTITCRASENIYSGLAWYQQKPGKPPKLLIYRASTLASGVSSRFSGSGSGTDFTLTISSLQPEDFATYYCQGGYYSSSSTYIAFGTGTKVTVLGGGGGSGGGGSGGGGSGGGGSQSQVVESGGGLVQPGGSLRLSCAVSGFDLSSYAVSWVRQAPGKGLEWIGIIYPRANTYYASWAKGRFTISKDNSKNTVYLQMNSLRAEDTAVYFCARDRYDSGAYLYTTYFNLWGQGTLVTVSSGGGGSGGGGSAFELTQSPSSLSASVGDRVTITCQASESINSRLAWYQQKPGQPPKLLIYDASDLTSGVPSRFSGSGSGTDFTLTISSLQPEDFATYYCQGYGGSSTTTFGCGTKLTVLGGGSGGSDIQMTQSPSSLSASVGDRVTITCQSSQSVFSNNYLAWFQQKPGQSPKRLIYSASTLASGVPSRFSGSGSGTDFTLTISSLQPEDFATYYCLGSYACSSADCYVFGTGTKVTVLG chain 2: DVQMTQSPSSLSASVGDRVTITCRASENIYSGLAWYQQKPGKPPKLLIYRASTLASGVSSRFSGSGSGTDFTLTISSLQPEDFATYYCQGGYYSSSSTYIAFGTGTKVTVLGGGGGSGGGGSGGGGSGGGGSQSQVVESGGGLVQPGGSLRLSCAVSGFDLSSYAVSWVRQAPGKGLEWIGIIYPRANTYYASWAKGRFTISKDNSKNTVYLQMNSLRAEDTAVYFCARDRYDSGAYLYTTYFNLWGQGTLVTVSSGGGGSGGGGSEVQLVESGGGLVQPGGSLRLSCAASGFSLSSYDMSWVRQAPGKGLAWIGASYASGPTYYASWAKGRFTISRDNSKNTVYLQMNSLRAEDTATYFCARGGWTGTSHSNIWGQGTLVTVSSGGGSGGGSGGGSGEVQLVESGGGLVQPGGSLRLSCAASGFSLSSYAMNWVRQAPGKCLEWIGHINAGDIAYYATWAKGRFTISRDNSKNTVYLQMNSLRAEDTAVYFCARGAGGFSTGPFKLWGQGTLVTVSS | EC50 (read off the curve) [1]: 1 to 2 nM; fold better rel. EC50 than scMATCH3 PRO2507 [6]: ~10 fold; Rel. maximum binding (MFIMATCH4/MFIPRO2213) [8]: 2.67; rel. EC50 (EC50, PRO2213/EC50, MATCH4) [8]: 0.45; Kd [9]: 0.093 nM; koff [9]: 7.02e-05 s⁻¹; kon [9]: 755000 M⁻¹ s⁻¹; kon [10]: 440000 M⁻¹ s⁻¹; Avg. % max. lysis (JIMT-1) [11]: 41%; Avg. % max. lysis (MDA-MB-231) [11]: 56.9%; Avg. % max. lysis (SKOV3) [11]: 54.6%; Avg. EC50 (nM) CD8 T cell act. (MDA-MB-231) [11]: 0.012 nM; Avg. EC50 (nM) CD8 T cell act. (SKOV3) [11]: 0.031 nM; Avg. EC50 (nM) Cytotoxicity (JIMT-1) [11]: 0.1 nM; Avg. EC50 (nM) Cytotoxicity (MDA-MB-231) [11]: 0.015 nM; Avg. EC50 (nM) Cytotoxicity (SKOV3) [11]: 0.043 nM
20.3% | 67.5% | 62.7% | 4.6 nM | 0.01 nM | 0.68 nM | 0.0027 s⁻¹ | 4.7 nM | 0.0024 s⁻¹ | 3.2 nM | 0.00034 s⁻¹ | 110000 M⁻¹ s⁻¹ | 0.00423 s⁻¹ | 30.5% | 80.3% | 78.7% | 3.9 nM | 0.005 nM | 0.38 nM | 0.28 nM | PRO2591 (bispecific antibody, heterodimeric MATCH4, bivalent for ROR1, monovalent for CD3 and hSA; also called MATCH4 with 55-39-G02-sc03 / 19-04-A10-sc06 / 28-21-D09-sc04 / 55-39-G02-sc03) chain 1: AQQLTQSPSSLSASVGDRVTITCQASQNVWNNNYLSWFQQKPGKPPKLLIVTASTLASGVSSRFSGSGSGTDFTLTISSLQPEDFATYYCAGGFSGEIRAFGTGTKVTVLGGGGGSGGGGSGGGGSGGGGSQSQLVESGGGLVQPGGSLRLSCAVSGIDLSRNAMSWVRQAPGKGLEWIGIILTSGSTYYASWAKGRFTISKTSTTLDLQMNSLRAEDTAVYFCVRGIASSSLKSFWGQGTLVTVSSGGGGSGGGGSAFELTQSPSSLSASVGDRVTITCQASESINSRLAWYQQKPGQPPKLLIYDASDLTSGVPSRFSGSGSGTDFTLTISSLQPEDFATYYCQGYGGSSTTTFGCGTKLTVLGGGSGGSDIQMTQSPSSLSASVGDRVTITCQSSQSVFSNNYLAWFQQKPGQSPKRLIYSASTLASGVPSRFSGSGSGTDFTLTISSLQPEDFATYYCLGSYACSSADCYVFGTGTKVTVLG chain 2: AQQLTQSPSSLSASVGDRVTITCQASQNVWNNNYLSWFQQKPGKPPKLLIVTASTLASGVSSRFSGSGSGTDFTLTISSLQPEDFATYYCAGGFSGEIRAFGTGTKVTVLGGGGGSGGGGSGGGGSGGGGSQSQLVESGGGLVQPGGSLRLSCAVSGIDLSRNAMSWVRQAPGKGLEWIGIILTSGSTYYASWAKGRFTISKTSTTLDLQMNSLRAEDTAVYFCVRGIASSSLKSFWGQGTLVTVSSGGGGSGGGGSEVQLVESGGGLVQPGGSLRLSCAASGFSLSSYDMSWVRQAPGKGLAWIGASYASGPTYYASWAKGRFTISRDNSKNTVYLQMNSLRAEDTATYFCARGGWTGTSHSNIWGQGTLVTVSSGGGSGGGSGGGSGEVQLVESGGGLVQPGGSLRLSCAASGFSLSSYAMNWVRQAPGKCLEWIGHINAGDIAYYATWAKGRFTISRDNSKNTVYLQMNSLRAEDTAVYFCARGAGGFSTGPFKLWGQGTLVTVSS | Rel. maximum binding (MFIMATCH4/MFIPRO2213) [8]: 2.21; rel. EC50 (EC50, PRO2213/EC50, MATCH4) [8]: 2.45; Kd [9]: 0.0227 nM; koff [9]: 4.1e-05 s⁻¹; kon [9]: 1.81e+06 M⁻¹ s⁻¹; kon [10]: 420000 M⁻¹ s⁻¹; Avg. % max. lysis (JIMT-1) [11]: 34.5%; Avg. % max. lysis (MDA-MB-231) [11]: 47.2%; Avg. % max. lysis (SKOV3) [11]: 58.7%; Avg. EC50 (nM) CD8 T cell act. (MDA-MB-231) [11]: 0.01 nM; Avg. EC50 (nM) CD8 T cell act. (SKOV3) [11]: 0.68 nM; Avg. EC50 (nM) Cytotoxicity (JIMT-1) [11]: 2.4 nM; Avg. EC50 (nM) Cytotoxicity (MDA-MB-231) [11]: 0.011 nM; Avg. EC50 (nM) Cytotoxicity (SKOV3) [11]: 3.5 nM; EC50 (read off the curve) [12]: ~0.5 nM
15.5% | 67% | 54.7% | 9.8 nM | 0.011 nM | 1.6 nM | 0.0036 s⁻¹ | 6.3 nM | 0.0036 s⁻¹ | 5 nM | 0.00049 s⁻¹ | 98000 M⁻¹ s⁻¹ | 0.0055 s⁻¹ | 23% | 79% | 75% | 9.1 nM | 0.005 nM | 0.76 nM | 0.72 nM | PRO2592 (bispecific antibody, heterodimeric MATCH4, bivalent for ROR1, monovalent for CD3 and hSA; also called MATCH4 with 55-39-G02-sc06 / 19-04-A10-sc06 / 28-21-D09-sc04 / 55-39-G02-sc06) chain 1: AQQLTQSPSSLSASVGDRVTITCQASQNVWNNNYLSWFQQKPGKPPKLLIVTASTLASGVSSRFSGSGSGTDFTLTISSLQPEDFATYYCAGGFSGEIRAFGCGTKVTVLGGGGGSGGGGSGGGGSGGGGSQSQLVESGGGLVQPGGSLRLSCAVSGIDLSRNAMSWVRQAPGKCLEWIGIILTSGSTYYASWAKGRFTISKTSTTLDLQMNSLRAEDTAVYFCVRGIASSSLKSFWGQGTLVTVSSGGGGSGGGGSAFELTQSPSSLSASVGDRVTITCQASESINSRLAWYQQKPGQPPKLLIYDASDLTSGVPSRFSGSGSGTDFTLTISSLQPEDFATYYCQGYGGSSTTTFGCGTKLTVLGGGSGGSDIQMTQSPSSLSASVGDRVTITCQSSQSVFSNNYLAWFQQKPGQSPKRLIYSASTLASGVPSRFSGSGSGTDFTLTISSLQPEDFATYYCLGSYACSSADCYVFGTGTKVTVLG chain 2: AQQLTQSPSSLSASVGDRVTITCQASQNVWNNNYLSWFQQKPGKPPKLLIVTASTLASGVSSRFSGSGSGTDFTLTISSLQPEDFATYYCAGGFSGEIRAFGCGTKVTVLGGGGGSGGGGSGGGGSGGGGSQSQLVESGGGLVQPGGSLRLSCAVSGIDLSRNAMSWVRQAPGKCLEWIGIILTSGSTYYASWAKGRFTISKTSTTLDLQMNSLRAEDTAVYFCVRGIASSSLKSFWGQGTLVTVSSGGGGSGGGGSEVQLVESGGGLVQPGGSLRLSCAASGFSLSSYDMSWVRQAPGKGLAWIGASYASGPTYYASWAKGRFTISRDNSKNTVYLQMNSLRAEDTATYFCARGGWTGTSHSNIWGQGTLVTVSSGGGSGGGSGGGSGEVQLVESGGGLVQPGGSLRLSCAASGFSLSSYAMNWVRQAPGKCLEWIGHINAGDIAYYATWAKGRFTISRDNSKNTVYLQMNSLRAEDTAVYFCARGAGGFSTGPFKLWGQGTLVTVSS | Rel. maximum binding (MFIMATCH4/MFIPRO2213) [8]: 2.41; rel. EC50 (EC50, PRO2213/EC50, MATCH4) [8]: 0.94; Kd [9]: 0.0287 nM; koff [9]: 5.69e-05 s⁻¹; kon [9]: 1.98e+06 M⁻¹ s⁻¹; kon [10]: 430000 M⁻¹ s⁻¹; Avg. % max. lysis (JIMT-1) [11]: 24.9%; Avg. % max. lysis (MDA-MB-231) [11]: 47.1%; Avg. % max. lysis (SKOV3) [11]: 44.7%; Avg. EC50 (nM) CD8 T cell act. (MDA-MB-231) [11]: 0.011 nM; Avg. EC50 (nM) CD8 T cell act. (SKOV3) [11]: 1.6 nM; Avg. EC50 (nM) Cytotoxicity (JIMT-1) [11]: 3.3 nM; Avg. EC50 (nM) Cytotoxicity (MDA-MB-231) [11]: 0.008 nM; Avg. EC50 (nM) Cytotoxicity (SKOV3) [11]: 5.37 nM; EC50 (read off the curve) [12]: ~0.5 nM
